According to patent US20190367605A1 (AstraZeneca / MedImmune, published 2019):
One block for each binder: values may come before it.

How the values were obtained:
[1] = molecular target: T1, human ASCT2 (system ASC amino acid transporter 2, SLC1A5) (human, UniProt Q15758 1-541); test: cell-based or functional assay
T1 sequence (looked up): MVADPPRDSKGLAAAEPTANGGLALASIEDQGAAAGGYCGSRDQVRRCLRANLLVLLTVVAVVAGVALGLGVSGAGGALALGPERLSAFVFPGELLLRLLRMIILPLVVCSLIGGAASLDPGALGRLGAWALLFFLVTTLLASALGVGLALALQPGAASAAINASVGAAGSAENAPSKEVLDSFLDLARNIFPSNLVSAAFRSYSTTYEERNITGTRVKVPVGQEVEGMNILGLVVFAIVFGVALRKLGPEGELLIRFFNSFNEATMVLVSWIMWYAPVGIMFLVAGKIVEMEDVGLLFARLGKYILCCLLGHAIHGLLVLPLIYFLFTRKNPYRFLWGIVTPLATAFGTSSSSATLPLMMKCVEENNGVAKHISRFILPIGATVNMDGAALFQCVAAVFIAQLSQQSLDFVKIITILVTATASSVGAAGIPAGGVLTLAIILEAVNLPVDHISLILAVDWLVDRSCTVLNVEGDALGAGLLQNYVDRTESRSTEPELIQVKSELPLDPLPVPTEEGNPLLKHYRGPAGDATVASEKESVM

[2] = molecular target: T1, human ASCT2 (system ASC amino acid …); test: flow cytometry, titration of fluorophore-labelled antibody on CHOK1 cells stably expressing human ASCT2
Procedure: (§1) Human, cynomolgous monkey, and CHO-derived cell lines expressing ASCT2 were utilized to assessed binding affinity and cross reactivity of ASCT2-specific antibodies. Apparent affinities were measured by titrating fluorophore labeled antibodies.
(§2) Results for human cancer cell line Ca127 are shown in FIG. 6A; results for human cancer cell line FaDu are shown in FIG. 6B; results for human cancer cell line SSC15 are shown in FIG. 6C; results for human cancer cell line WiDr are shown in FIG. 6D; results for CHOK1 cells stably expressing human ASCT2 are shown in FIG. 6E; results for CHOK1 cells stably expressing cyno ASCT2 are shown in FIG. 6F); results for cyno cancer cell line CynoMK1 are shown in FIG. 6G; and results for mock transfected CHOK1 cells are shown in FIG. 6H.

[3] = molecular target: T1, human ASCT2 (system ASC amino acid …); test: flow cytometry, titration of fluorophore-labelled antibody on WiDr cells
Procedure: as §1, §2

[4] = molecular target: T1, human ASCT2 (system ASC amino acid …); test: flow cytometry, titration of fluorophore-labelled antibody on FaDu cells
Procedure: as §1, §2

[5] = molecular target: T2, cynomolgus monkey ASCT2 (cynomolgus monkey (Macaca fascicularis), UniProt G7PXZ3 1-542); test: flow cytometry, titration of fluorophore-labelled antibody on CHOK1 cells stably expressing cyno ASCT2
T2 construct: whole, on cells; Present on stably transfected CHOK1 cells or endogenously on the cyno cell line CynoMK1; also called cyno ASCT2; CynoASCT2
T2 sequence: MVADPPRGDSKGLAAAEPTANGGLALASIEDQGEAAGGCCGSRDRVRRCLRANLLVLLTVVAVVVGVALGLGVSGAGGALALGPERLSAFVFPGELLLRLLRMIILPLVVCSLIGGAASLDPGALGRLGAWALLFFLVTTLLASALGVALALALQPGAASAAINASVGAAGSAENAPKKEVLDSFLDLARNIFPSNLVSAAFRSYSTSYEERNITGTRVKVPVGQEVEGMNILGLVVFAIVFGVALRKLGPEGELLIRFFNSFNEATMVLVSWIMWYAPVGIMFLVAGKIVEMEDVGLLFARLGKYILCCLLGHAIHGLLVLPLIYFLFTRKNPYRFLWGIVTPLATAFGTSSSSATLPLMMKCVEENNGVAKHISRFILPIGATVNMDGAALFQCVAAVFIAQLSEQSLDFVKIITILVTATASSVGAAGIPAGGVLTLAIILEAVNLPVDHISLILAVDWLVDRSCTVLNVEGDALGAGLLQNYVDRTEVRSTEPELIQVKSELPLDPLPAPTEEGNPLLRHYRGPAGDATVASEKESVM
Procedure: as §1, §2

[6] = molecular target: T1, human ASCT2 (system ASC amino acid …); test: flow cytometry, titration of fluorophore-labelled antibody on Cal27 cells
Procedure: as §1, §2

[7] = molecular target: T1, human ASCT2 (system ASC amino acid …); test: flow cytometry, titration of fluorophore-labelled antibody on SSC15 cells
Procedure: as §1, §2

[8] = molecular target: T2, cynomolgus monkey ASCT2; test: flow cytometry, titration of fluorophore-labelled antibody on cyno cell line Cyno MK1
Procedure: as §1, §2

[9] = molecular target: T3, ASCT1 (SLC1A4) (human, UniProt P43007 1-532); test: flow cytometry on SKMEL-2 cells after shRNA knockdown of ASCT1 (binding not ablated)
T3 construct: whole, on cells; also called ASC transporter 1; human ASCT1
T3 sequence (looked up): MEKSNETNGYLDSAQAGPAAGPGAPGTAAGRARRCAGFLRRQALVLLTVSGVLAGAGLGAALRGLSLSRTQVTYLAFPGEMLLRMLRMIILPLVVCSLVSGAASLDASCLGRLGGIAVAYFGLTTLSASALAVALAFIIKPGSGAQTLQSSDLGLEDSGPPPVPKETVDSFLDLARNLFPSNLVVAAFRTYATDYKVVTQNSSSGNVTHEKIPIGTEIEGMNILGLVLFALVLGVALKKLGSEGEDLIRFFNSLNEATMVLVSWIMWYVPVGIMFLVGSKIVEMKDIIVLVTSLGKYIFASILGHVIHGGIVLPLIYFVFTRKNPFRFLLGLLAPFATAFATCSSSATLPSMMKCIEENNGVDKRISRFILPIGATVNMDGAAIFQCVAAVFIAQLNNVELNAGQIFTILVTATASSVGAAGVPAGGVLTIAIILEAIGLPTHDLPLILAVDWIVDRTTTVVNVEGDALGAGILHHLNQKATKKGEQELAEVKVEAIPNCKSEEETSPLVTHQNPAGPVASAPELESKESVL

[10] = molecular target: T2, cynomolgus monkey ASCT2; test: cell-based or functional assay
[11] = molecular target: T1, human ASCT2 (system ASC amino acid …); test: cell-based or functional assay; remark: listed apart in the source
[12] = molecular target: T1, human ASCT2 (system ASC amino acid …); test: binding to CHOK1 cells stably expressing human ASCT2; clones conjugated to tubulysin AZ1508 per paragraph 353
[13] = molecular target: T2, cynomolgus monkey ASCT2; test: binding to CHOK1 cells stably expressing cyno ASCT2; clones conjugated to tubulysin AZ1508 per paragraph 353
[14] = molecular target: T1, human ASCT2 (system ASC amino acid …); test: cell-based or functional assay; remark: listed apart in the source
[15] = molecular target: T1, human ASCT2 (system ASC amino acid …); test: flow cytometry on WiDr cells and CHO cells expressing HuASCT2
Description: The amino acid sequences of the VH and VL domains for 17c10 were aligned to the known human germline sequences in the VBASE database, and the closest germline was identified by sequence similarity. For the VH domain, this was IgVh4-34*01; for the VL domain, it was IgKv1-5*03. For 17c10, the germlining process involved reverting 1 framework residue in the VH domain and 5 residues in the VL domain. In the VH domain, the reversion mutation was at Kabat position 82a, where threonine (T) was reverted to serine (S). In the VL domain, the mutations were at Kabat position 13, 21, 39, 70, and 76 where at Kabat position 13 threonine (T) was reverted to alanine (A); at Kabat position 21 leucine (L) was reverted to isoleucine (I); at Kabat position 39 Asparagine (N) was reverted to lysine (K); at Kabat position 70 aspartate (D) was reverted to glutamate (E), and at Kabat position 76 threonine (T) was reverted to serine (S). These changes were made by synthesizing VH and VL domains with these mutations and replacing existing VH and VL using restriction digestion and ligation. Both the germlined and original (non-germlined) 17c10 were expressed as IgGs, and their affinity to multiple ASCT2-expressing cell lines was assessed by flow cytometry.

B1: anti-ASCT2 17C10 classically conjugated to tubulysin AZ1508 (antibody, human IgG1, V domains shown)
VH: QVQLQQWGAGLLKPSETLSLTCAVYGGSFSGYYWSWIRQPPGKGLEWIGEIHHSGGANYNPSLKSRVTISVDTSKNQFSLKLTSVTAADTAVYYCARGQGKNWHYDYFDYWGQGTLVTVSS
VL: DIQMTQSPSTLSTSVGDRVTLTCRASQSIRSWLAWYQQNPGKAPKLLIYKASILKIGVPSRFSGSGSGTDFTLTITSLQPDDFATYYCQQYYSYSRTFGQGTKVEIK
modifications: tubulysin AZ1508 conjugated classically (native cysteine residues, thiol-maleimide linkage); positions not given
- IC50 (ng/ml), ADC-mediated cytotoxic killing, SW48 cells, CellTiter-Glo, 72 h [1]: 46 ng/mL

B2: anti-ASCT2 1E8 classically conjugated to tubulysin AZ1508 (antibody, human IgG1, V domains shown)
VH: QVQLQQWGAGLLKPSETLSLTCAVYGGSFSGYYWSWIPQPPGKGVEWIGEINHSGSTNYNPSLKSRVTISSDTSKNQFSLKLTSVTAADTAVYYCARGQGKNWNYDYFDYWGQGTLVTVSS
VL: DIQMTQSPSTLSASVGDRVTLTCRASQSIRSWLAWYQQKPGKAPKLLIYKASSLKSGVPSRFSGSGSGTDFTLTISSLQPDDFATYYCQQYYSFSRTFGQGTKVEIK
modifications: tubulysin AZ1508 conjugated classically (native cysteine residues, thiol-maleimide linkage); positions not given
- IC50 (ng/ml), ADC-mediated cytotoxic killing, SW48 cells, CellTiter-Glo, 72 h [1]: 34.8 ng/mL

- EC50 [2]: 8.6 nM
- EC50 [3]: 7 nM
- EC50 [4]: 3.8 nM
- EC50 [5]: 9.6 nM
- EC50 [6]: 2.8 nM
- EC50 [7]: 3.6 nM
- EC50 [8]: 6.7 nM
- binding result [9]: no binding
B3: anti-ASCT2 antibody 17c10 (original, non-germlined, parental) (antibody, V domains shown)
VH: QVQLQQWGAGLLKPSETLSLTCAVYGGSFSGYYWSWIRQPPGKGLEWIGEIHHSGGANYNPSLKSRVTISVDTSKNQFSLKLTSVTAADTAVYYCARGQGKNWHYDYFDYWGQGTLVTVSS
VL: DIQMTQSPSTLSTSVGDRVTLTCRASQSIRSWLAWYQQNPGKAPKLLIYKASILKIGVPSRFSGSGSGTDFTLTITSLQPDDFATYYCQQYYSYSRTFGQGTKVEIK
notes: also called 17c10 parental antibody; ASCT2 mAb 17c10

- EC50 [12]: 8.1 nM
- EC50 [13]: 28.4 nM
B4: anti-ASCT2 antibody 1e8 conjugated to tubulysin AZ1508 (Example 4) (antibody, V domains shown)
VH: QVQLQQWGAGLLKPSETLSLTCAVYGGSFSGYYWSWIPQPPGKGVEWIGEINHSGSTNYNPSLKSRVTISSDTSKNQFSLKLTSVTAADTAVYYCARGQGKNWNYDYFDYWGQGTLVTVSS
VL: DIQMTQSPSTLSASVGDRVTLTCRASQSIRSWLAWYQQKPGKAPKLLIYKASSLKSGVPSRFSGSGSGTDFTLTISSLQPDDFATYYCQQYYSFSRTFGQGTKVEIK
modifications: tubulysin AZ1508 conjugated; mode and site of conjugation not stated for these experiments
notes: Antibody-drug conjugate; also called 1e8 conjugated to tubulysin 1508
- Cytotoxicity IC50 (ng/ml), CHOK1 cells stably expressing cyno ASCT2 [10]: 140 ng/mL
- Cytotoxicity IC50 (ng/ml), CHOK1 cells stably expressing human ASCT2 [11]: 20.7 ng/mL

- EC50 [12]: 8.6 nM
- EC50 [13]: 9.6 nM
B5: anti-ASCT2 antibody 17c10 conjugated to tubulysin AZ1508 (17c10-AZ1508, Example 4) (antibody, V domains shown)
VH: QVQLQQWGAGLLKPSETLSLTCAVYGGSFSGYYWSWIRQPPGKGLEWIGEIHHSGGANYNPSLKSRVTISVDTSKNQFSLKLTSVTAADTAVYYCARGQGKNWHYDYFDYWGQGTLVTVSS
VL: DIQMTQSPSTLSTSVGDRVTLTCRASQSIRSWLAWYQQNPGKAPKLLIYKASILKIGVPSRFSGSGSGTDFTLTITSLQPDDFATYYCQQYYSYSRTFGQGTKVEIK
modifications: tubulysin AZ1508 conjugated; mode and site of conjugation not stated for these experiments
notes: Antibody-drug conjugate; also called 17c10-ADC; ASCT2-ADC
- Cytotoxicity IC50 (ng/ml), CHOK1 cells stably expressing cyno ASCT2 [10]: 8.59 ng/mL
- Cytotoxicity IC50 (ng/ml), CHOK1 cells stably expressing human ASCT2 [11]: 5.53 ng/mL
- IC50 (ng/ml), cytotoxic killing of SKMEL-2 cells with ASCT1-shRNA1 [14]: 7.59 ng/mL
- IC50 (ng/ml), cytotoxic killing of SKMEL-2 cells with ASCT1-shRNA2 [14]: 4.96 ng/mL
- IC50 (ng/ml), cytotoxic killing of SKMEL-2 cells with ASCT2-shRNA [14]: 205 ng/mL
- IC50 (ng/ml), cytotoxic killing of SKMEL-2 cells with NTshRNA [14]: 14.3 ng/mL

- EC50 [2]: 8.1 nM
- EC50 [3]: 5.8 nM
- EC50 [4]: 6.8 nM
- EC50 [5]: 28.4 nM
- EC50 [6]: 13 nM
- EC50 [7]: 8.8 nM
- EC50 [8]: 14.8 nM
B6: anti-ASCT2 antibody 1e8 (original) (antibody, V domains shown)
VH: QVQLQQWGAGLLKPSETLSLTCAVYGGSFSGYYWSWIPQPPGKGVEWIGEINHSGSTNYNPSLKSRVTISSDTSKNQFSLKLTSVTAADTAVYYCARGQGKNWNYDYFDYWGQGTLVTVSS
VL: DIQMTQSPSTLSASVGDRVTLTCRASQSIRSWLAWYQQKPGKAPKLLIYKASSLKSGVPSRFSGSGSGTDFTLTISSLQPDDFATYYCQQYYSFSRTFGQGTKVEIK
notes: also called ASCT2 mAb 1e8

- binding result [15]: binds
B7: germlined 17c10 antibody (antibody, V domains shown)
VH: QVQLQQWGAGLLKPSETLSLTCAVYGGSFSGYYWSWIRQPPGKGLEWIGEIHHSGGANYNPSLKSRVTISVDTSKNQFSLKLSSVTAADTAVYYCARGQGKNWHYDYFDYWGQGTLVTVSS
VL: DIQMTQSPSTLSASVGDRVTITCRASQSIRSWLAWYQQKPGKAPKLLIYKASILKIGVPSRFSGSGSGTEFTLTISSLQPDDFATYYCQQYYSYSRTFGQGTKVEIK
notes: also called 17c10 germlined antibody
